Data on 8 substances can be found in publication PMC7112440.

Assay [1] concerns the target human norovirus HuNoV (GII.4), virus from a positive stool sample (human norovirus GII.4). Description: BLI.
Assay [2] concerns the target viral hemorrhagic septicemia virus (VHSV) genotype IVa. Put plainly: SPR.
The target of assay [3] is human norovirus HuNoV (GII.4), virus from a positive stool sample (human norovirus GII.4). Description: SPR.
Assay [4] has as its target concanavalin A (Con A) isolated from Canavalia ensiformis (Jack bean) (Canavalia ensiformis). Put plainly: capture on a column of Con A-immobilised polyacrylate beads.
The target is the same in assay [5]. The assay is described as above. This is another data set of the same source.

Read-outs that look alike come from different tables or passages of the source.

As for “concanavalin A (Con A) isolated from Canavalia ensiformis (Jack bean) (natural protein)”, in assay [1], the association, fold over the commercial HuNoV antibody is 10 fold. Besides, the Kd in assay [2] turned out to be 710 nM; in assay [3], 71.5 nM.

In assay [4], “human norovirus HuNoV (GII.4), virus from a positive stool sample (complex)” displayed a virus recovery (%) of 90.6%. In assay [5], this substance showed a HuNoV recovery (%) from lettuce of 89.5%, a HuNoV recovery (%) from milk of 60.8%, a HuNoV recovery (%) from strawberry of 70.8% and a virus recovery (%) greater than 90%.

For the substance “human norovirus HuNoV GI.3, virus from a positive stool sample (complex)”, in assay [4], the virus recovery (%) turned out to be 68.5%.

“human norovirus HuNoV GI.8, virus from a positive stool sample (complex)” gave a virus recovery (%) in assay [4] of 56.2%.

In the case of “human norovirus HuNoV GII.2, virus from a positive stool sample (complex)”, the virus recovery (%) in assay [4] stood at 85.2%.

With “human norovirus HuNoV GII.6, virus from a positive stool sample (complex)”, in assay [4], the virus recovery (%) was 41.8%.

As to “human norovirus HuNoV GII.8, virus from a positive stool sample (complex)”, the virus recovery (%) in assay [4] came out at 77.8%.

In assay [4], “human norovirus HuNoV GII.17, virus from a positive stool sample (complex)” had a virus recovery (%) of 61.4%.
